Experimental data from CN112961250A (CHANGCHUN GENESCIENCE PHARMACEUTICALS CO LTD, dated 2021).

Target: T1, 人VEGFC-His(金赛自构) (human)
T1 construct: also called hVEGFC-His; hVEGFC
T1 chain: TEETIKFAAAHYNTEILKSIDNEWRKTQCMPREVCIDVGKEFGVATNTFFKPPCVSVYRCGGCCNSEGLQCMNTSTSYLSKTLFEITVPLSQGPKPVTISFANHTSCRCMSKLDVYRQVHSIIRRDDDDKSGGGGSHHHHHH
Assay: ELISA, human VEGFC-His coated at 1 μg/ml

binding result: binds
B1: 抗人VEGFC单克隆抗体P01-H1L4 (antibody, V domains shown)
VH: EVRLLESGGGLVQPGGSLRLSCAASGFTFRRSTMAWVRQAPGKGLEWVSSISAQGANTYYADNVKGRFTISRDNSKNTLYLQMNSLRAEDTAVYYCARDLPAGGFGPWGRGTMVTVSS
VL: SYELTQPPSSSGTPGQRVTISCRGSSSNIGRYSVSWYQQVPGTAPKLLIYTDNQRPSGVPDRFSASKSGTSASLTITGLQSEDEADYYCAAWDDSQYGPWVFGGGTKLTVL
notes: also called 阳性对照抗体P01-H1L4; 对照抗体P01-H1L4
